Experimental data published in the Human Domainome abundance scans (Beltran et al. 2025).

B1: Histone H1t, residues 44 to 112; numbered along this chain, P22492 (parent)
chain: VSKLITEALSVSQERVGMSLVALKKALAAAGYDVEKNNSRIKLSLKSLVNKGILVQTRGTGASGSFKLS

Variants of: B1
Test: abundance fitness (aPCA) (normalised: wild type 0, dead -1); higher = more abundant; growth selection in yeast, the domain comes from the species named
Details: Homo sapiens

Abundance fitness: each site, then its substitutions
I5: W -0.46
V11: W -0.04, Y -0.027, K 0.053, D -0.138, M -0.255, S -0.061, L -0.129, R -0.013, I -0.185, G -0.101, F -0.138, E -0.106, N -0.144, C -0.077
E7: M -0.63, S -0.497, L -0.89, Q -0.429, I -0.739, R 0.032, G -1.05, N -0.118, A -0.996, V -0.826, C -0.493, F -0.808, K -0.12, D -0.101, Y -0.589, W -0.275
Q13: G -0.211, V -0.342, D -0.222, N -0.206, W -0.471, L -0.33, S -0.242, F -0.613, R -0.093, T -0.128, A -0.286, M -0.377, Y -0.212, K 0.014, C -0.233, E -0.05
T6: G -0.629, C -0.181, I -0.071, R -0.04, H -0.05, L -0.222, E -0.112, M -0.098, D -0.299, S -0.168, F -0.578, K 0.092, W -0.737, Q -0.002, A -0.536, P -1.24, Y -0.298, V -0.153, N -0.031
R15: I -0.312, D 0.096, Q -0.143, G -0.15, F -0.258, L -0.501, M -0.364, V -0.45, S -0.089, H -0.061, Y -0.338, N 0.063, K 0.234, E 0.084, P -0.163, T 0.05
A8: F -0.217, Q -0.584, E -0.719, I -0.032, Y -0.345, S -0.42, D -1.13, N -0.531, P -1.06, W -0.026, R -0.335, H -0.324, C -0.137, G -0.522, T -0.447, M -0.163, L -0.275, K -0.411
V16: F -0.224, D 0.347, A 0.037
S12: N -0.202, V 0.095, E -0.429, Y -0.48, H -0.353, Q -0.034, P -0.486, K -0.275, A -0.007, R -0.511, C 0.024, I 0.042, F -0.038, L -0.005, G 0.019, W -0.416, D 0.019, M -0.093
E14: Q -0.456, R -0.61, A -0.456, M -0.649, C -0.838, K -0.449, L -0.71, N -0.508, S -0.274, V -0.651, T -0.4, H -0.373, Y -0.67, D -0.271, I -0.712, F -0.852
S10: I -0.316, M -0.175, R -0.129, Q -0.165, G 0.027, Y -0.286, V -0.167, P -0.835, F -0.655, D -0.029, E -0.41, N -0.024, K -0.17, T 0.016, H -0.275, C -0.43, W -0.788, L -0.261
L9: Q -0.697, H -0.915, K -0.194, Y -0.1, S -0.66, I 0.045, C -0.401, N -0.826, T 0.03, F -0.061, V -0.301, M -0.145
